Experimental data as given in patent US20170188835.

Molecular target: iTEV(+) 3.0, infrared fluorescent Tobacco Etch Virus (TEV) protease sensor

B1: Tobacco Etch Virus (TEV) protease (protein)
chain: GESLFKGPRDYNPISSTICHLTNESDGHTTSLYGIGFGPFIITNKHLFRRNNGTLLVQSLHGVFKVKNTTTLQQHLIDGRDMIIIRMPKDFPPFPQKLKFREPQREERICLVTTNFQTKSMSSMVSDTSCTFPSSDGIFWKHWIQTKDGQCGSPLVSTRDGFIVGIHSASNFTNTNNYFTSVPKNFMELLTNQEAQQWVSGWRLNADSVLWGGHKVFMSKPEEPFQPVKEATQLMNELVYSQ
gel electrophoresis with Coomassie blue staining (cleavage of the sensor): Two bands revealed by Coomassie blue staining correspond to N and C half of the sensor with the expected molecular weight
